Experimental data reported in paper PMC2838536 (Human Molecular Genetics, 2010).
One block for each binder: values may come before it.

Key:
[1] = target: T1, his6-tagged full-length Pam18 (S. cerevisiae, UniProt Q07914 1-168); test: pull-down
T1 sequence: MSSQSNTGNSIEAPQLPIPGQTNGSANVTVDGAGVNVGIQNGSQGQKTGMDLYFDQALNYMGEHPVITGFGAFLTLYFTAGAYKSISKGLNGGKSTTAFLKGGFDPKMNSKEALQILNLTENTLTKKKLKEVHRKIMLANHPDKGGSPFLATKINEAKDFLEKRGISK

[2] = target: GST-Magmas_(F92G) (in MagmasJ+T) (human); test: pull-down

binding result [1]: binds
B1: full-length GST-Magmas (natural protein)
chain: MAKYLAQIIVMGVQVVGRAFARALRQEFAASRAAADARGRAGHRSAAASNLSGLSLQEAQQILNVSKLSPEEVQKNYEHLFKVNDKSVGGSFYLQSKVVRAKERLDEELKIQAQEDREKGQMPHT

fold reduction in the binding affinity against wild-type Magmas [2]: 2 fold
B2: his6-tagged Pam18J+T (domain or fragment)
chain: KSISKGLNGGKSTTAFLKGGFDPKMNSKEALQILNLTENTLTKKKLKEVHRKIMLANHPDKGGSPFLATKINEAKDFLEKRGISK
